In patent publication US20230174644A1:

Molecular target: Recombinant nucleolin fused with a polyhistidine (His)6 tag, made in Pichia GS115 (human) (UniProt P19338)
Test: SPR (BIAcore 2000), ES amine-coupled on a CM5 chip, NL 62.5-500 nM in flow, 25° C., 1:1 Langmuir model

Sequence of UniProt P19338 (P19338 other isoform, or with tags, fused parts or gaps limits assumed): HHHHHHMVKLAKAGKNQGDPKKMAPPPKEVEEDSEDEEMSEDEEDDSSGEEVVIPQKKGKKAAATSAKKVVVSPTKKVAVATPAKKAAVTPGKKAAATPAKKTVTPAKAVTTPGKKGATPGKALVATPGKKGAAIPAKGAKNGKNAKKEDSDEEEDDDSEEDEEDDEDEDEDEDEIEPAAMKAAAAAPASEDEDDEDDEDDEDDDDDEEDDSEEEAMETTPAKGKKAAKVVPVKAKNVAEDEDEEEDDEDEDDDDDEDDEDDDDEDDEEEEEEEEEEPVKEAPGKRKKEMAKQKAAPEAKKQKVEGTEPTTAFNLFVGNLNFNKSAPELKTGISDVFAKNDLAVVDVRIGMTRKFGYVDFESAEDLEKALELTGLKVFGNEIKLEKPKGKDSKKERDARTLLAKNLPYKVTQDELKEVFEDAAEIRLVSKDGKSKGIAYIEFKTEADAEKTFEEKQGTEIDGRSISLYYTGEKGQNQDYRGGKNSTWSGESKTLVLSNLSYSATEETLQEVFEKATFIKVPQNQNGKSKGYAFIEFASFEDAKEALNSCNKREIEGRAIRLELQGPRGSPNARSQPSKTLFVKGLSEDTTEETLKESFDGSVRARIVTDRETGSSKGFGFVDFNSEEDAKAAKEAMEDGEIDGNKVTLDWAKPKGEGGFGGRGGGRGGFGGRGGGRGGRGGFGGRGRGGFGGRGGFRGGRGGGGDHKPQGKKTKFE

Kd: 0.0232 µM
Substance: Endostatin (recombinant, with N-terminal His-tag) (from UniProt P39060 1572-1754) (ligand)
